For one test, the system named is HsUFM1. Briefly: Isothermal titration calorimetry, HsUFM1 titrated with HsC53wt. It counts as binding, Homo sapiens. Conditions: 40 μM HsUFM1 in cell, 300 or 550 μM HsC53wt in syringe. On the procedure:
(§1) All experiments were carried out at 25°C in 50 mM sodium phosphate buffer pH 7.0, 100 mM NaCl, using the PEAQ‐ITC Automated (Malvern Panalytical Ltd). For protein–protein interactions, the calorimetric cell was filled with either GABARAP or HsUFM1 and titrated with either HsC53 wt, HsC53 sAIM, HsC53 cAIM, or HsUBA5 LIR. A single injection of 0.4 μl of HsC53 or AtC53 IDRs (not taken into account) was followed by 18 injections of 2 μl each. Injections were made at 150‐s intervals with a duration of 4 s and a stirring speed of 750 rpm. The reference power was set to 10 μcal/s; the feedback mode was set to high. The raw titration data were integrated with NITPIC (Keller et al, [2012]), globally fitted with SEDPHAT (Zhao et al, [2015]), and plotted with GUSSI (Brautigam, [2015]).
Background: In ITC the heat of successive injections is recorded.

In test [1] the test system is HsFIP200 Claw domain (CD). As to the kind of experiment: Microscopy-based on-bead protein-protein interaction assay, GST-FIP200 CD beads. Type of test: binding, Homo sapiens. Conditions: 1 μM HsC53 variant, 2 independent replicates containing 2 technical replicates. Here is the method:
(§2) Glutathione‐Sepharose 4B bead slurry (Cytiva, average diameter 90 μm) was washed and diluted 10 times in HEPES buffer (25 mM HEPES pH 7.5, 150 mM NaCl, 1 mM DTT). The beads were then incubated for 30 min at 4°C (16 rpm horizontal rotation) with GST‐tagged bait proteins (2 μM of GST, GST‐FIP200 CD, GST‐ATG8A, GST‐GABARAP, GST‐AtUFM1, and GST‐HsUFM1). The beads were washed five times in 10 times the bead volume of HEPES buffer. The buffer was removed, and the beads were resuspended 1:20 in HEPES buffer. 10 μl of diluted beads was mixed with 20 μl of mCherry‐tagged binding partner at a concentration of 1.5 μM (0.5 μl bead slurry and 1 μM binding partner final concentrations) with or without competitor, as stated in the relative experiment. […]
(§3) From images acquired from a Zeiss LSM700 confocal microscope, the quantification of fluorescence was performed in ImageJ (Schindelin et al, [2012]) by drawing a line across each bead and taking the maximum gray value along the line. The maximum gray value for any given pixel represents the fluorescence intensity.
(§4) For images acquired from a Zeiss LSM800 confocal microscope, we used a custom Fiji Macro. […] In the end, the mean fluorescent intensities were exported out and used for quantification.
(§5) For each method, the fluorescence intensity was normalized against the mean of the control condition.

The target of another test is GABARAP. Briefly: Isothermal titration calorimetry, GABARAP titrated with HsC53 variants. Type of test: binding, human. As to conditions: ITC, 25°C, 50 mM sodium phosphate pH 7.0, 100 mM NaCl; GABARAP 40 or 70 μM in cell; global analysis of 5 titrations, hetero-association model A + B; read-out: KD, best-fit value (ITC, GABARAP). Here is the method:
as §1

A further test deals with GST-ATG8A. As to the kind of experiment: Microscopy-based on-bead protein-protein interaction assay, GST-ATG8A beads. It counts as binding, Arabidopsis thaliana. Conditions: 1 μM mCherry-tagged C53 (AtC53 variants per Appendix Fig S10A); normalized fluorescence; mean average; 3 replicates. On the procedure:
as §2, §3, §4, §5

In the next test the test system is GST-GABARAP. Briefly: Microscopy-based on-bead protein-protein interaction assay, GST-GABARAP beads. As to conditions: 1 μM mCherry-tagged C53 (HsC53 variants per Appendix Fig S10B); normalized fluorescence; mean average; 3 replicates. Type of test: binding, human. On the procedure: as §2, §3, §4, §5
Test [2] deals with GST-HsUFM1 / mCh-HsC53 interaction. As to the kind of experiment: On-bead competition of the HsUFM1-HsC53 interaction. Type of test: binding, Homo sapiens. Conditions: 1 μM HsC53; cAIM peptide 0-100 μM; UBA5 LIR peptide or GABARAP 100 μM. Here is the method: as §2, §3, §4, §5

Four molecules from publication PMC10183829, “Shuffled ATG8 interacting motifs form an ancestral bridge between UFMylation and autophagy” (The EMBO Journal, 2023) can be followed below.

A word on the Kd: it is a measure of binding affinity in units of concentration.

B1: HsC53^wt: recombinant Homo sapiens C53 (CDK5RAP3), wild type (protein)
chain: MEDHQHVPIDIQTSKLLDWLVDRRHCSLKWQSLVLTIREKINAAIQDMPESEEIAQLLSGSYIHYFHCLRILDLLKGTEASTKNIFGRYSSQRMKDWQEIIALYEKDNTYLVELSSLLVRNVNYEIPSLKKQIAKCQQLQQEYSRKEEECQAGAAEMREQFYHSCKQYGITGENVRGELLALVKDLPSQLAEIGAAAQQSLGEAIDVYQASVGFVCESPTEQVLPMLRFVQKRGNSTVYEWRTGTEPSVVERPHLEELPEQVAEDAIDWGDFGVEAVSEGTDSGISAEAAGIDWGIFPESDSKDPGGDGIDWGDDAVALQITVLEAGTQAPEGVARGPDALTLLEYTETRNQFLDELMELEIFLAQRAVELSEEADVLSVSQFQLAPAILQGQTKEKMVTMVSVLEDLIGKLTSLQLQHLFMILASPRYVDRVTEFLQQKLKQSQLLALKKELMVQKQQEALEEQAALEPKLDLLLEKTKELQKLIEADISKRYSGRPVNLMGTSL
modifications: left off: His6, N-terminal, state not stated
notes: recombinant Homo sapiens C53 (CDK5RAP3), wild type
Consider B1, for which the “Binding to UFM1 by ITC (in words)” value in the test on HsUFM1 is reported as “did not detect appreciable binding”.

B2: HsC53^cAIM: HsC53^(IDWG267WDGI, IDWG292WDGI, IDWG310WDGI) (protein)
chain: MEDHQHVPIDIQTSKLLDWLVDRRHCSLKWQSLVLTIREKINAAIQDMPESEEIAQLLSGSYIHYFHCLRILDLLKGTEASTKNIFGRYSSQRMKDWQEIIALYEKDNTYLVELSSLLVRNVNYEIPSLKKQIAKCQQLQQEYSRKEEECQAGAAEMREQFYHSCKQYGITGENVRGELLALVKDLPSQLAEIGAAAQQSLGEAIDVYQASVGFVCESPTEQVLPMLRFVQKRGNSTVYEWRTGTEPSVVERPHLEELPEQVAEDAWDGIDFGVEAVSEGTDSGISAEAAGWDGIIFPESDSKDPGGDGWDGIDDAVALQITVLEAGTQAPEGVARGPDALTLLEYTETRNQFLDELMELEIFLAQRAVELSEEADVLSVSQFQLAPAILQGQTKEKMVTMVSVLEDLIGKLTSLQLQHLFMILASPRYVDRVTEFLQQKLKQSQLLALKKELMVQKQQEALEEQAALEPKLDLLLEKTKELQKLIEADISKRYSGRPVNLMGTSL
For B2, the “FIP200 interaction compared with C53 wild type (in words)” value in test [1] is “stronger interaction”.

B3: C53^cAIM: text label without species: HsC53^cAIM with GABARAP (ITC, beads), AtC53^cAIM with GST-ATG8 (protein)
chain: MEDHQHVPIDIQTSKLLDWLVDRRHCSLKWQSLVLTIREKINAAIQDMPESEEIAQLLSGSYIHYFHCLRILDLLKGTEASTKNIFGRYSSQRMKDWQEIIALYEKDNTYLVELSSLLVRNVNYEIPSLKKQIAKCQQLQQEYSRKEEECQAGAAEMREQFYHSCKQYGITGENVRGELLALVKDLPSQLAEIGAAAQQSLGEAIDVYQASVGFVCESPTEQVLPMLRFVQKRGNSTVYEWRTGTEPSVVERPHLEELPEQVAEDAWDGIDFGVEAVSEGTDSGISAEAAGWDGIIFPESDSKDPGGDGWDGIDDAVALQITVLEAGTQAPEGVARGPDALTLLEYTETRNQFLDELMELEIFLAQRAVELSEEADVLSVSQFQLAPAILQGQTKEKMVTMVSVLEDLIGKLTSLQLQHLFMILASPRYVDRVTEFLQQKLKQSQLLALKKELMVQKQQEALEEQAALEPKLDLLLEKTKELQKLIEADISKRYSGRPVNLMGTSL
For the molecule B3, on GABARAP, the Kd came out at 11.2 µM. Besides, the “Recruited more efficiently to GST-ATG8 than the respective C53 wild-type protein” value in the test on GST-ATG8A worked out at 22%. Moreover, the “Recruited more efficiently to GST-GABARAP than the respective C53 wild-type protein” value with GST-GABARAP is on record as 35%.

B4: GABARAP: human ATG8 isoform GABARAP, used at 100 µM as competitor (protein)
chain: MKFVYKEEHPFEKRRSEGEKIRKKYPDRVPVIVEKAPKARIGDLDKKKYLVPSDLTVGQFYFLIRKRIHLRAEDALFFFVNNVIPPTSATMGQLYQEHHEEDFFLYIAYSDESVYGL
modifications: left off: GST, N-terminal, kept
On to B4, for which the “Competition of the HsC53-HsUFM1 interaction (in words)” value in test [2] is given as “able to disrupt”.
